This note sets out measurements from US20070166384A1, “Methods , composition and preparations for delivery of immune response modifiers” (priority 2004, published 2007).

Converted amounts (≈) assume the structure as drawn.

Series [1] in a line: Solubility in normal saline and phosphate buffered saline (saturated solutions, 25° C., 7 days, HPLC). The series is classed as physicochemical. Conditions: for solubility at 7 days: thermodynamic from solid; for Solubility Fold Increase: Example 6 over IRM2. As to the method: The solubility of IRM2 and the IRM-polymer complex exemplified in Example 6 was determined in normal saline and phosphate buffered saline (PBS) at pH 7.4. Each compound was added to each medium until saturation had been reached. Vials containing the saturated solutions were capped and placed into a shaking water bath at 25° C. After 7 days the saturated solutions were filtered and analyzed for compound content on an HPLC using a Zorbax Bonus-RP 150×4.6 mm 5 μm particle size column. IRM2 was eluted with a 25:75 ratio of 0.05% trifuoro-acetic acid (TFA) in Acetonitrile to 0.1% TFA in water. Example 6 was eluted with a 10:90 ratio of 0.05% TFA in Acetonitrile to 0.1% TFA in water for three minutes, gradient to a 75:25 ratio of 0.05% TFA in Acetonitrile to 0.1% TFA in water for seven minutes and held at the 75:25 ratio for eight minutes. All HPLC runs were set at a flow rate of 1 mL/min, 20 μL injection volume, and a 254 nm UV detection wavelength. Quantitation was performed against external standards. Results are shown in Table 5 expressed in millimolar (mM) and solubility fold increase of Example 6 over IRM2.

The subject of series [2] is Peripheral blood mononuclear cells (PBMC). Description: Cytokine induction in an in vitro human blood cell system (IFN-α and TNF-α secreted into culture media). It counts as cell-based. Conditions: 18 to 24 hours; for Minimum Effective Concentration (µM) IFN-α: lowest tested concentration inducing IFN-α over fixed level (usually 20 pg/mL); for Minimum Effective Concentration (µM) TNF: lowest tested concentration inducing TNF-α over fixed level (usually 40 pg/mL). The text has this:
An in vitro human blood cell system is used to assess cytokine induction. Activity is based on the measurement of interferon (α) and tumor necrosis factor (α) (IFN-α and TNF-α, respectively) secreted into culture media as described by Testerman et. al. in “Cytokine Induction by the Immunomodulators Imiquimod and S-27609,” Journal of Leukocyte Biology, 58, 365-372 (September, 1995).
Whole blood from healthy human donors is collected by venipuncture into vacutainer tubes or syringes containing EDTA. Peripheral blood mononuclear cells (PBMC) are separated from whole blood by density gradient centrifugation using HISTOPAQUE-1077 (Sigma, St. Louis, Mo.) or Ficoll-Paque Plus (Amersham Biosciences Piscataway, N.J.). Blood is diluted 1:1 with Dulbecco's Phosphate Buffered Saline (DPBS) or Hank's Balanced Salts Solution (HBSS). Alternately, whole blood is placed in Accuspin (Sigma) or LeucoSep (Greiner Bio-One, Inc., Longwood, Fla.) centrifuge frit tubes containing density gradient medium. The PBMC layer is collected and washed twice with DPBS or HBSS and re-suspended at 4×10^6 cells/mL in RPMI complete. The PBMC suspension is added to 96 well flat bottom sterile tissue culture plates containing an equal volume of RPMI complete media containing test compound.
The compounds are solubilized in dimethyl sulfoxide (DMSO). The DMSO concentration should not exceed a final concentration of 1% for addition to the culture wells. The compounds are generally tested at concentrations ranging from 30-0.014 μM. Controls include cell samples with media only, cell samples with DMSO only (no compound), and cell samples with reference compound. […]
Following incubation the plates are centrifuged for 10 minutes at 1000 rpm (approximately 200×g) at 4° C. […] The samples are analyzed for IFN-α by ELISA and for TNF-α by IGEN/BioVeris Assay.
IFN-α concentration is determined with a human multi-subtype calorimetric sandwich ELISA (Catalog Number 41105) from PBL Biomedical Laboratories, Piscataway, N.J. Results are expressed in pg/mL.
The TNF-α concentration is determined by ORIGEN M-Series Immunoassay and read on an IGEN M-8 analyzer from BioVeris Corporation, formerly known as IGEN International, Gaithersburg, Md. […]
Analysis of the data has two steps. First, the greater of the mean DMSO (DMSO control wells) or the experimental background (usually 20 pg/mL for IFN-α and 40 pg/mL for TNF-α) is subtracted from each reading. If any negative values result from background subtraction, the reading is reported as
“*”, and is noted as not reliably detectable. […] The adjustment ratio is the area of the reference compound in the new experiment divided by the expected area of the reference compound based on the past 61 experiments (unadjusted readings). […]

A short description of series [3]: Liberation of IRM1 from IRM-polymer complex in buffered saline at 37° C., measured by HPLC. It counts as physicochemical. Particulars: 0.1 mg/ml. As to the method:
Samples were placed in a thermostated autosampler with the temperature controlled at 37° C. Samples were injected periodically over the course of the experiment and the % of IRM1 liberated was measured by an HPLC system equipped with a thermostatted autosampler set at 37° C. and a Zorbax SB C18, (3.0×150 mm), 3.5 μm particle size column with a column temperature of 40° C. Samples were eluted with a mobile phase of 1% acetic acid in water and methanol. The mobile phase was run at a ratio of 55:45 of 1% acetic acid in water to methanol for five minutes, gradient to 5:95 for ten minutes, held at 5:95 for five minutes, gradient to 55:45 in less than a minute, and held at 55:45 for ten minutes. All HPLC runs were set at a flow rate of 0.5 mL/min, 20 μL injection volume, and a 254 nm UV detection wavelength. The % IRM1 was determined by normalizing the IRM1 peak area by the total peak area of the chromatogram.

Setting [4] is: normal saline, saline or isotonic, Saline, 25° C.

In the case of `CCCCc1nc2c(N)nc3ccccc3c2n1CCCCNC(C)=O` [IRM 2, N-[4-(4-Amino-2-butyl-1H-imidazo[4,5-c]quinolin-1-yl)butyl]acetamide, reference compound], the solubility at 7 days came out at 40 µM (≈ 14.1 µg/mL) in series [1] (setting [4]) and 70 µM (≈ 24.7 µg/mL) in series [1] (phosphate buffered saline (PBS), aqueous buffer, Phosphate Buffered Saline, pH 7.4, 25° C.).

For the compound `CCCCc1nc2c(N)nc3ccccc3c2n1CCCCNC(=O)CCOCCOCCOCCOCCOCCOCCOCCOCCOCCOCCOCCOCCOCCOCCOCCOCCOCCOCCOCCOCCOCCOCCOCCOCCOCCOCCOCCOCCOCCOCCOCCOCCOCCOCCOCCOCCOCCOCCOCCOCCOCCOCCOCCOCCOCCOC` [Example 6], the “Solubility Fold Increase” value was 75.97 in series [1] (Phosphate Buffered Saline, pH 7.4) and 142.50 in series [1] (Saline). Further, the solubility at 7 days in series [1] (aqueous buffer, Phosphate Buffered Saline, pH 7.4, 25° C.) was 5590 µM (≈ 13300 µg/mL); in series [1] (setting [4]) it was 5970 µM (≈ 14200 µg/mL). Besides, the Minimum Effective Concentration (µM) IFN-α in series [2] was determined as 30 µM. This compound also came in with a Minimum Effective Concentration (µM) TNF in series [2] greater than 30 µM.

For the compound `CCOCc1nc2c(NC(=O)CCOCCOCCOCCOCCOCCOCCOCCOCCOCCOCCOCCOCCOCCOCCOCCOCCOCCOCCOCCOCCOCCOCCOCCOCCOCCOCCOCCOCCOCCOCCOCCOCCOCCOCCOCCOCCOCCOCCOCCOCCOCCOCCOCCOCCOCCOC)nc3ccccc3c2n1CC(C)(C)O` [Example 7], the “% IRM1” value worked out at 2.9% in series [3] (Citrate Buffered Saline, pH 4, 37° C., time 0 hr); 5.7% in series [3] (Citrate Buffered Saline, pH 4, 37° C., time 6 hr); 7.4% in series [3] (Citrate Buffered Saline, pH 4, 37° C., time 10 hr); 9.4% in series [3] (Citrate Buffered Saline, pH 4, 37° C., time 13 hr); 10.6% in series [3] (Citrate Buffered Saline, pH 4, 37° C., time 17 hr); 12.1% in series [3] (Citrate Buffered Saline, pH 4, 37° C., time 20 hr). The “% IRM1” value in series [3] (Citrate Buffered Saline, pH 4, 37° C., time 23 hr) was determined as 13.0%; in series [3] (Citrate Buffered Saline, pH 4, 37° C., time 28 hr), 16.5%; in series [3] (Citrate Buffered Saline, pH 4, 37° C., time 30 hr), 17.1%; in series [3] (Phosphate Buffered Saline, pH 7.4, 37° C., time 1 hr) it was 1.3%; in series [3] (Phosphate Buffered Saline, pH 7.4, 37° C., time 5 hr), 1.5%; in series [3] (Phosphate Buffered Saline, pH 7.4, 37° C., time 10 hr), 1.7%. Also, the “% IRM1” value is listed as 1.8% in series [3] (Phosphate Buffered Saline, pH 7.4, 37° C., time 13 hr); 1.9% in series [3] (Phosphate Buffered Saline, pH 7.4, 37° C., time 18 hr); 2.1% in series [3] (Phosphate Buffered Saline, pH 7.4, 37° C., time 20 hr); 2.1% in series [3] (Phosphate Buffered Saline, pH 7.4, 37° C., time 23 hr); 2.3% in series [3] (Phosphate Buffered Saline, pH 7.4, 37° C., time 27 hr); 2.4% in series [3] (Phosphate Buffered Saline, pH 7.4, 37° C., time 30 hr). Moreover, the Minimum Effective Concentration (µM) IFN-α in series [2] amounted to 3.33 µM. The Minimum Effective Concentration (µM) TNF in series [2] turned out to be 30 µM.
